Test system: mouse intestinal organoids
Test: Ex vivo mouse intestinal organoid culture (number and growth of organoids)
Format: cell-based
Settings: VHHs in place of Fc-Noggin, 5 days
Method: Finally, the VHHs were tested in an intestinal organoid culture system for their ability to neutralize the function of BMP4 ex vivo. Inhibition of BMP activity is one of the requirements to maintain Intestinal Stem Cells in vitro cultured as “organoids” that mimic crypt-villus structures and is usually provided by the addition of Noggin to the media. Murine small intestine organoids were cultured in the presence or absence of the VHH biheads and compared to Noggin. To precisely determine which BMPs are present in these cultures, BMP secretion was measured in the conditioned media of intestinal organoids grown without Noggin for three days. Whereas BMP2, BMP4 and BMP6 could be detected by ELISA (FIG. 14A), BMP5 levels were negative, most likely due to the low sensitivity of the ELISA assay (>250 pg/mL), and not due to the lack of BMP5 in these cultures. Indeed, analysis of the protein lysates of these organoids, detected the presence of BMP2, BMP4, BMP5 and BMP6 (FIG. 14B). Next, freshly isolated crypts from murine small intestines were cultured with the VHHs and tested for their ability to provide endogenous BMP inhibition and to sustain organoid cultures ex vivo. […]
Organoids were cultured as previously described (Sato et al., 2009). […] Crypts were counted and resuspended in matrigel. […]

B1: C8E7: E7 linked to C8, hetero-dimer VHH bihead (protein)
chain: EVQLVESGGGLVQAGGSLRLSCAASGRTFRINDMGWYRQAPGKSRDMVARITSGGNTNYADSVKGRFTISRDNAKNTVYLQMNSLKPEDTAVYYCNADGLRFDSTRYRPFDSWGQGTQVTVSSGGGGSGGGGSEVQLVESGGGLVQAGGSLRLSCAASGSIRGFVAMAWYRQAPGKQREWVATVTNGGTLYGDSVKGRFTGSRDNAKNTVYLQMNSLKPEDTAVYYCALRQIGASGYDYWGQGTQVTVSS
- maintenance of organoid culture growth / stem cell proliferation: able to maintain culture growth of organoids
